Assay results published in article PMC2787667 (Cellular signalling, 2009).
Residue numbers refer to the chain shown, from its start. Names and notes keep the numbering of the source.

B1: hFSHR(M490A,W494A,I495A), as Rluc and GFP2 fusion proteins (receptor, human, UniProt P23945 18-695, looked up)
chain: CHHRICHCSNRVFLCQESKVTEIPSDLPRNAIELRFVLTKLRVIQKGAFSGFGDLEKIEISQNDVLEVIEADVFSNLPKLHEIRIEKANNLLYINPEAFQNLPNLQYLLISNTGIKHLPDVHKIHSLQKVLLDIQDNINIHTIERNSFVGLSFESVILWLNKNGIQEIHNCAFNGTQLDELNLSDNNNLEELPNDVFHGASGPVILDISRTRIHSLPSYGLENLKKLRARSTYNLKKLPTLEKLVALMEASLTYPSHCCAFANWRRQISELHPICNKSILRQEVDYMTQARGQRSSLAEDNESSYSRGFDMTYTEFDYDLCNEVVDVTCSPKPDAFNPCEDIMGYNILRVLIWFISILAITGNIIVLVILTTSQYKLTVPRFLMCNLAFADLCIGIYLLLIASVDIHTKSQYHNYAIDWQTGAGCDAAGFFTVFASELSVYTLTAITLERWHTITHAMQLDCKVQLRHAASVAVMGAAFAFAAALFPIFGISSYMKVSICLPMDIDSPLSQLYVMSLLVLNVLAFVVICGCYIHIYLTVRNPNIVSSSSDTRIAKRMAMLIFTDFLCMAPISFFAISASLKVPLITVSKAKILLVLFHPINSCANPFLYAIFTKNFRRDFFILLSKCGCYEMQAQIYRTETSSTVHNTHPRNGHCSSAPRVTSGSTYILVPLSHLAQN
B2: hFSHR(W436A,W494A), as Rluc and GFP2 fusion proteins (receptor, human, UniProt P23945 18-695, looked up)
chain: B1 chain with W419A, A473M, A478I
B3: hFSHR(I382A,V383A,M490A,V491A), as Rluc and GFP2 fusion proteins (receptor, human, UniProt P23945 18-695, looked up)
chain: B1 chain with I365A, V366A, V474A, A477W, A478I
B4: hFSHR(I381A,V491A), as Rluc and GFP2 fusion proteins (receptor, human, UniProt P23945 18-695, looked up)
chain: B1 chain with I364A, A473M, V474A, A477W, A478I
B5: hFSHR(Y110A), full-length, as Rluc and GFP2 fusion proteins (receptor, human, UniProt P23945 18-695, looked up)
chain: B1 chain with Y93A, A473M, A477W, A478I

How the values were obtained:
Experiment in all cases: FRET or BRET
[1] = target: hFSHR(H485A,S488A,M492A,I495A,F504A), as Rluc and GFP2 fusion proteins (human) (UniProt P23945)
[2] = target: hFSHR(Y110A,H485A,S488A,M492A,I495A,F504A), as Rluc and GFP2 fusion proteins (human) (UniProt P23945)
[3] = target: the molecule itself

Molecule	BRET50 mut/BRET50 wt [3] [ratio]	other results
hFSHR(H485A,S488A,M492A,I495A,F504A), as Rluc and GFP2 fusion proteins (from UniProt P23945 18-695) (receptor)		BRET50 mut/BRET50 wt [1]: 1.41
hFSHR(Y110A,H485A,S488A,M492A,I495A,F504A), as Rluc and GFP2 fusion proteins (from UniProt P23945 18-695) (receptor)		BRET50 mut/BRET50 wt [2]: 1.29
B1	1.5	
B2	1.29	
B3	0.934	
B4	1.69	
B5	1.74	
